Patent US20210309759A1 (SUNSHINE GUOJIAN PHARMACEUTICAL SHANGHAI, published 2021)
Changes are numbered by the printed parent chain. Ends that are not written are not given here. * marks the point of attachment. Biotin = O=C1N[C@H]2[C@H](CS[C@H]2CCCCC(=O)*)N1

Columns and labels:
[1] = molecular target: T1, HER2 on tumor cells with high HER2 expression (breast cancer cells BT474; SKBR3) (human, UniProt P04626 23-1255); assay: FACS on BT474 cells
T1 construct: whole, on cells; Endogenous full-length receptor on human tumor cell lines; also called breast cancer cells BT474 (with high HER2 expression on the cell surface); HER2 in BT474 and SKBR3 cells

495-510 = molecular target: T2, 495-510; assay: peptide ELISA
T2 peptide: HTANRPEDECVGEGLA

[2] = molecular target: T3, peptide 3-4, bio-RPEDECVGEGLA (499-510); assay: peptide ELISA
T3 peptide: Biotin-RPEDECVGEGLA

[3] = molecular target: T4, human HER2-ECD protein (1 to 652 amino acids of NP_004439.2, 6xHis tag at the C-terminus) (human, UniProt P04626 23-652); assay: ELISA on coated human HER2-ECD
T4 construct: Homemade, expressed in CHO cells from HER2-ECD-His-pTT5; also called HER2-ECD-His; HER2-ECD-fl(1-652)

[4] = molecular target: T5, peptide 4-7 (D502A), bio-HTANRPEAECVGEGLA; assay: ELISA on alanine scan biotin peptides
T5 peptide: Biotin-HTANRPEAECVGEGLA

[5] = molecular target: T6, peptide 4-10 (V505A), bio-HTANRPEDECAGEGLA; assay: ELISA on alanine scan biotin peptides
T6 peptide: Biotin-HTANRPEDECAGEGLA

[6] = molecular target: T7, peptide 4-11 (E507A), bio-HTANRPEDECVGAGLA; assay: ELISA on alanine scan biotin peptides
T7 peptide: Biotin-HTANRPEDECVGAGLA

[7] = molecular target: T8, peptide 4-12 (L509A), bio-HTANRPEDECVGEGAA; assay: ELISA on alanine scan biotin peptides
T8 peptide: Biotin-HTANRPEDECVGEGAA

[8] = molecular target: T9, peptide 4-1, bio-ATANRPEDECVGEGLA; assay: peptide ELISA, alanine scan
T9 peptide: Biotin-ATANRPEDECVGEGLA

[9] = molecular target: T10, peptide 4-2, bio-HAANRPEDECVGEGLA; assay: peptide ELISA, alanine scan
T10 peptide: Biotin-HAANRPEDECVGEGLA

[10] = molecular target: T11, peptide 4-3, bio-HTAARPEDECVGEGLA; assay: peptide ELISA, alanine scan
T11 peptide: Biotin-HTAARPEDECVGEGLA

[11] = molecular target: T12, peptide 4-4, bio-HTANAPEDECVGEGLA; assay: peptide ELISA, alanine scan
T12 peptide: Biotin-HTANAPEDECVGEGLA

[12] = molecular target: T13, peptide 4-5, bio-HTANRAEDECVGEGLA; assay: peptide ELISA, alanine scan
T13 peptide: Biotin-HTANRAEDECVGEGLA

[13] = molecular target: T14, peptide 4-6, bio-HTANRPADECVGEGLA; assay: peptide ELISA, alanine scan
T14 peptide: Biotin-HTANRPADECVGEGLA

[14] = molecular target: T15, peptide 4-8, bio-HTANRPEDACVGEGLA; assay: peptide ELISA, alanine scan
T15 peptide: Biotin-HTANRPEDACVGEGLA

[15] = molecular target: T16, peptide 4-9, bio-HTANRPEDEAVGEGLA; assay: peptide ELISA, alanine scan
T16 peptide: Biotin-HTANRPEDEAVGEGLA

[16] = molecular target: T17, peptide HA-21, bio-HQALLHTANRPEDECVGEGLA (490-510) (N-terminal biotin); assay: ELISA on biotin peptides of HER2-ECD DIII
T17 peptide: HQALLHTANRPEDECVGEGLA

HER2-ECD-D502A = molecular target: T18, HER2-ECD-D502A (human, UniProt P04626 23-652); assay: ELISA on coated HER2-ECD-D502A; D502A mutant
T18 construct: Site-directed mutant of HER2-ECD-His-pTT5, expressed in HEK293E

HER2-ECD-E507A = molecular target: T19, HER2-ECD-E507A (human, UniProt P04626 23-652); assay: ELISA on coated HER2-ECD-E507A; E507A mutant
T19 construct: Site-directed mutant of HER2-ECD-His-pTT5, expressed in HEK293E

[17] = molecular target: T4, human HER2-ECD protein (1 to 652 amino …); assay: ELISA on coated HER2-ECD protein; wild-type HER2-ECD
HER2-ECD-DI-III = molecular target: T20, HER2-ECD-DI-III; assay: Western blot by the method of Example 3.2 (reduced-denatured protein)
T20 construct: Truncated human HER2-ECD construct; also called HER2-ECD-DI-DIII(1-510)
T20 receptor fragment: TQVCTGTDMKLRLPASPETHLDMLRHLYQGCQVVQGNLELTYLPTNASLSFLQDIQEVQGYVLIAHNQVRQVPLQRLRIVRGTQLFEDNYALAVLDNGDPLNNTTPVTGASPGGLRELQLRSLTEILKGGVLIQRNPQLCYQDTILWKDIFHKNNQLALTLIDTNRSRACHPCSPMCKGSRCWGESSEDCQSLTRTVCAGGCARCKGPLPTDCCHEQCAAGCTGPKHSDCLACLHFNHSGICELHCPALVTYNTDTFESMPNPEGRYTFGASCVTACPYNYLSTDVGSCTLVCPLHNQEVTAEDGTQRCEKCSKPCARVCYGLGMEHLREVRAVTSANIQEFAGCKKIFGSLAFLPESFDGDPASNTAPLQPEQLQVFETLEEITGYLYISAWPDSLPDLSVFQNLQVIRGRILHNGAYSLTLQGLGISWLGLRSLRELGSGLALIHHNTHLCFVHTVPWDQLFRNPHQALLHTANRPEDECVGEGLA

HER2-ECD-V505A = molecular target: T21, HER2-ECD-V505A (human, UniProt P04626 23-652); assay: ELISA on coated HER2-ECD-V505A (printed HER2-ECD-E505A); V505A mutant (printed E505A)
T21 construct: Site-directed mutant of HER2-ECD-His-pTT5, expressed in HEK293E

[18] = molecular target: T4, human HER2-ECD protein (1 to 652 amino …); assay: competitive ELISA on coated human HER2-ECD; competitor: biotinylated 19H6 (10 ng/mL, mixed 1:1)
HER2-ECD protein of rat = molecular target: T22, HER2-ECD protein of rat (rat, UniProt P06494 23-654); assay: ELISA, antigen coated at 0.2 µg/well
T22 construct: extracellular domain; Bought; also called Rat-HER2-ECD

human HER1 protein = molecular target: T23, human HER1 protein (human, UniProt P00533 25-645); assay: ELISA, antigen coated at 0.2 µg/well
T23 construct: Bought

human HER3 protein = molecular target: T24, human HER3 protein (human, UniProt P21860 20-643); assay: ELISA, antigen coated at 0.2 µg/well
T24 construct: Bought

human HER4 protein = molecular target: T25, human HER4 protein (human, UniProt Q15303 26-649, limits assumed); assay: ELISA, antigen coated at 0.2 µg/well
T25 construct: Bought
T25 sequence (looked up): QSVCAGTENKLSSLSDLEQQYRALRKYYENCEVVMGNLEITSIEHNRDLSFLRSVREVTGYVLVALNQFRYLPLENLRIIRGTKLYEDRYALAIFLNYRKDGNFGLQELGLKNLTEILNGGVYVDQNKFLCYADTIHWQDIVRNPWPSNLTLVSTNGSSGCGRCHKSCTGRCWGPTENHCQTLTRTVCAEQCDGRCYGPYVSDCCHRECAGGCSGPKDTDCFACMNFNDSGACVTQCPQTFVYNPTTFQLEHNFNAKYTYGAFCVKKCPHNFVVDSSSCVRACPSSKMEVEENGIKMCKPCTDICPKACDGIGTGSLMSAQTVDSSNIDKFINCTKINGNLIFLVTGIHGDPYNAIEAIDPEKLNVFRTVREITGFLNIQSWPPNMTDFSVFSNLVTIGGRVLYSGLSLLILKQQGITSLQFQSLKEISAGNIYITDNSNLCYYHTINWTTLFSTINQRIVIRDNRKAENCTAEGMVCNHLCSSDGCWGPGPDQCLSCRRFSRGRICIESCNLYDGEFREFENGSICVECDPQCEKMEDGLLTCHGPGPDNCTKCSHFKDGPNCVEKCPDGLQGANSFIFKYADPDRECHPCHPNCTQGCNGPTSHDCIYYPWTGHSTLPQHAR

[19] = molecular target: T26, HER2-ECD protein of cynomolgus monkey (cynomolgus monkey, UniProt A0A2K5WUT7 1-622); assay: ELISA, Cyno-HER2-ECD coated at 0.2 µg/well
T26 construct: extracellular domain; Bought; also called Cyno-HER2-ECD

[20] = molecular target: T4, human HER2-ECD protein (1 to 652 amino …); assay: ELISA on coated human HER2-ECD; humanized 19H6-Hu
[21] = molecular target: T4, human HER2-ECD protein (1 to 652 amino …); assay: Biacore, antibody captured on Protein A chip, HER2-ECD as analyte
[22] = molecular target: T4, human HER2-ECD protein (1 to 652 amino …); assay: ELISA on coated protein labelled HER2 on the sheet (taken as the human HER2-ECD of paragraph 112), positive control of the selectivity assay of Example 7
[23] = molecular target: T4, human HER2-ECD protein (1 to 652 amino …); assay: ELISA on coated human HER2-ECD; humanized 19H6-graft
[24] = molecular target: T4, human HER2-ECD protein (1 to 652 amino …); assay: ELISA on coated human HER2-ECD; chimeric 19H6-ch, FIG. 22 experiment

B1: murine anti-human HER2 monoclonal antibody 19H6 (antibody, V domains shown)
VH: QVQLQQSGPELVRPGESVKISCKGSGYTFTDYAIHWVKQSHAKSLEWIGVFSIYYENINYNQKFKGKATMTVDKSSSTAYLDLARLTSEDSAIYYCARRDGGTINYWGQGTSVTVSS
VL: DVVMTQTPLSLPVSLGDQASISCRSSQSLVHSNGNTYLHWYLQKPGQSPKLLIYKVSNRFSGVPDRFSGSGSGTDFTLKISRVEAEDLGVYFCSQSTHIPWTFGGGTKLEIK
notes: Hybridoma-derived mouse antibody purified on Protein G; also called murine antibody 19H6
B1 was tested, and the EC50 [1] was 1.1 nM, the binding result (495-510) was “binds” and the binding result [2] was “binds”. The EC50 [3] was 0.28 nM, the binding result [4] was “no binding” and the binding result [5] was “no binding”. B1: no binding [6]; binds [7]; binds [8]. B1: binds [9]; binds [10]; binds [11]. B1: binds [12]; binds [13]; binds [14]. The binding result [15] was “binds”, the binding result [16] was “binds” and the EC50 (HER2-ECD-D502A) was 0.05 nM. The EC50 (HER2-ECD-E507A) was 0.867 nM, the EC50 [17] was 0.041 nM and the binding result (HER2-ECD-DI-III) was “binds”. For the same binder, the EC50 (HER2-ECD-V505A) was 0.038 nM and the “IC50 (read off the curve)” value [18] was about 1 nM.

B2: humanized antibody 19H6-Hu (antibody, human IgG1, kappa, V domains shown)
VH: QVQLVQSGAEVKKPGASVKVSCKGSGYTFTDYAIHWVRQAPGQSLEWIGVFSIYYENINYNQKFKGRATMTVDKSTSTAYMELRSLRSDDTAVYYCARRDGGTINYWGQGTLVTVSS
VL: DVVMTQSPLSLPVTLGQPASISCRSSQSLVHSNGNTYLHWYQQRPGQSPRLLIYKVSNRFSGVPDRFSGSGSGTDFTLKISRVEAEDVGVYFCSQSTHIPWTFGQGTKVEIKR
In the case of B2, the EC50 [1] is reported as 1.9 nM, the binding result (HER2-ECD protein of rat) is reported as “no binding” and the binding result (human HER1 protein) is reported as “no binding”. The binding result (human HER3 protein) was “no binding”, the binding result (human HER4 protein) was “no binding” and the EC50 [19] was 0.1 nM. For the same binder, the EC50 [20] was 0.06 nM, the Kd [21] was 0.713 nM and the koff [21] was 0.000111 s⁻¹. For the same binder, the kon [21] was 155000 M⁻¹ s⁻¹ and the “EC50 (read off the curve)” value [22] was about 0.1 nM.

B3: humanized antibody 19H6-graft (antibody, human IgG1, kappa, V domains shown)
VH: B2 VH with G24A, S44G, I48M, A68V, V72T, K74T
VL: B2 VL with Y41F, L51R, F92Y
notes: Constant regions tied by the words 'The same constant region as that of 19H6-ch'
B3 gave an EC50 [23] of 0.5 nM.

B4: chimeric antibody 19H6-ch (antibody, human IgG1, kappa, V domains shown)
VH: B1 VH
VL: B2 VL with S7T, T14S, Q17D, P18Q, Q42L, R44K, R50K, V88L, Q105G, V109L
notes: 19H6 variable regions spliced with human IgG1 and kappa constant regions; expressed in HEK-293E
B4 gave an EC50 [1] of 1.5 nM, an EC50 [3] of 0.1 nM and an EC50 [24] of 0.05 nM.
